US20120219562A1 (AbbVie / Abbott, published 2012)

Experiments:
[1] = target: T1, human interleukin 12 (recombinant human IL-12, p70 heterodimer) (human, UniProt P29459 23-219; P29460 23-328); experiment: RB assay: inhibition of IL-12 binding to its receptor
T1 construct: p35 and p40 linked by a disulfide bridge; also called hIL-12; rh IL-12
T1 sequence (looked up) 1: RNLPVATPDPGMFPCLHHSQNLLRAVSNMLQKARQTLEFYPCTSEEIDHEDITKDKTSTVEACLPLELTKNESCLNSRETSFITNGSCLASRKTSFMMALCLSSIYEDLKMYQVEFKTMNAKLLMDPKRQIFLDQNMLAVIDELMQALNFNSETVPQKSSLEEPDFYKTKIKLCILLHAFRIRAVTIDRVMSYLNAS
T1 sequence (looked up) 2: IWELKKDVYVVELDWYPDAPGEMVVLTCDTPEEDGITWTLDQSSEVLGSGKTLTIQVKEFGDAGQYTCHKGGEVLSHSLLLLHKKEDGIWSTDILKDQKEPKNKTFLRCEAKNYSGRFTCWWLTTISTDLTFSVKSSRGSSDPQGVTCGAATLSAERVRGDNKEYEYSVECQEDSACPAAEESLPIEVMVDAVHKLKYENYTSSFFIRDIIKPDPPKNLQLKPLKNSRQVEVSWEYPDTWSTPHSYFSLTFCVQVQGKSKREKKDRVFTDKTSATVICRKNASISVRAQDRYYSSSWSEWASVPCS

[2] = target: T1, human interleukin 12 (recombinant human …); experiment: cell-based or functional assay
[3] = target: T1, human interleukin 12 (recombinant human …); experiment: SPR (BIAcore), off-rate from human IL-12

IC50 [1]: 60 pM | IFN gamma IC50 [2]: 40 pM | PHA assay IC50 [2]: 50 pM | koff [3]: 0.000127 s⁻¹
B1: Y61-L94Y IgG (antibody, V domains shown)
VH: QVQLVQSGGGVVQPGRSLRLSCAASGFTFSSYGMHWVRQAPGKGLEWVAFIRYDGSNKYYADSVKGRFTISRDNSKNTLYLQMKSLRAEDTAVYYCKTHGSHDNWGQGTMVTVSS
VL: QSVLTQPPSVSGAPGQRVTISCSGSRSNIGSNTVKWYQQLPGTAPKLLIYGNDQRPSGVPDRFSGSKSGTSASLAITGLQAEDEADYYCQSYDRYTHPALLFGTGTKVTVL
